From publication PMC10376177
Values belong to the substance of their own block, whether it stands above or below them.

Legend:
Experiment in all cases: native gel or EMSA
[1] = biological target: CthedisKatG W90V (Chaetomium thermophilum var. dissitum)
[2] = biological target: CthedisKatG W90F (Chaetomium thermophilum var. dissitum)
[3] = biological target: CthedisKatG, thermophilic catalase–peroxidase from Chaetomium thermophilum var. dissitum (wild type) (Chaetomium thermophilum var. dissitum)

stoichiometry N [1]: 2
Substance: CthedisKatG W90V (enzyme)

stoichiometry N [2]: 2
Substance: CthedisKatG W90F (enzyme)

stoichiometry N [3]: 2
Substance: CthedisKatG, thermophilic catalase–peroxidase from Chaetomium thermophilum var. dissitum (wild type) (enzyme)
